Test system: MS2 coat protein
Test: apparent KD of MS2 coat protein; designed switch direction (-1 OFF switch, 1 ON switch): 1; higher = weaker reporter binding
Summary of the method: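 SNAP-549-labelled MS2 coat protein was titrated, doubling from 0.7 or 1.5 nM to 3 µM, over designed RNA switches transcribed on Illumina chips by stalled E. coli RNA polymerase. Runs were done without input, with 200 uM small-molecule ligand, or with an oligonucleotide input. Apparent KD is the per-design median over clusters of curve-fitted normalised fluorescence.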

[1] = Eterna round: R95, input ligand: microRNA oligo, concentration not stated
[2] = Eterna round: R95, input ligand: FMN 200 uM
[3] = Eterna round: R95, input ligand: none
[4] = input ligand: microRNA oligo, concentration not stated

| Sequence | apparent KD of MS2 coat protein [1] [nM] | apparent KD of MS2 coat protein [2] [nM] | apparent KD of MS2 coat protein [3] [nM] | apparent KD of MS2 coat protein (input ligand: FMN 200 uM) [nM] | apparent KD of MS2 coat protein [4] [nM] | apparent KD of MS2 coat protein (input ligand: none) [nM] |
| --- | --- | --- | --- | --- | --- | --- |
| UGAGCCGGCACUGAGGAUAUUCAUAUUUAAACAUGAGGAUCACCCAUGUAGGCCAGAAGGCCUUGGGAGAAGGCAGGUCGGCUCU [salish99_ss2_r3_078] (puzzle: Same State 2) | 258 | – | – | – | – | – |
| UGCAUACAUGAGGAUCACCCAUGUCAACGUAGCCGAGGAUAUGGAUUGCCGUGAGGCGUGCCAGAAGGCGGAGAGG [Same State 1 - Mod of Vinnie Teenbexe] (puzzle: Same State 1) | 42.5 | 29.1 | 59 | – | – | – |
| UGCAUACAUGAGGAUCACCCAUGUCAACGUAGUCGAGGAUAUGGGCAGCCGUGAGGCGUACCAGAAGGCGAAGAGG [JL-ss1-3.04 ViennaUCT mod] (puzzle: Same State 1) | 62.2 | 28.7 | 77.9 | – | – | – |
| UGCUAUAGUAUAUUGGUGCAAGCUUUUUGACAUGAGGAUCACCCAUGUACUCGUCUUAAGCGCAGUCCGUAGACUGC (puzzle: Sensor for hsa-mir-208a) | 13.8 | 84.5 | 89.9 | – | – | – |
| UGCUAUUGUAUAUUGGUGCAAGCUUAUUGACAUGAGGAUCACCCAUGUACUCGUCUUAUGUGCAGUCCGUAGACUGC [JL-shm-2.25 Brourd mod] (puzzle: Sensor for hsa-mir-208a) | 13.9 | 72 | 78.7 | – | – | – |
| UGCUUCGUGUAAGGAUAUGCAGCCGUUUCGGCUGCAGAAGGUACUAUAAUACAUGAGGAUCACCCAUGUCUCUCGCAUUGCGGG [salish99_SSng1_r04_303] (Eterna round: R96, puzzle: Same State NG 1) | – | – | – | 37.5 | 40.3 | 52.2 |
| UGGAUCUAGGCUUGCCUGGGUCCAUGCUGACAUGAGGAUCACCCAUGUGCAUUCUAUAAGCUUUUUGUUUGUCAGCU (puzzle: Sensor for hsa-mir-208a) | 25.1 | 360 | 411 | – | – | – |
| UGGCCAGCCUGUGCUGGGCUUUUGCAUGUACAUGAGGAUCACCCAUGUCGUGUUCAUGCUUUUUGCUCGUCUUUAAA [Photon Torp-03] (puzzle: Sensor for hsa-mir-208a) | 16.3 | 49.5 | 55.8 | – | – | – |
| UGGCUCAGACGAGGAUAUGAUCAUGGCGCUUCGGCGCAUACAUGAGGAUCACCCAUGUAGGGUGAUCAGAAGGUGUCUGAGCCA [SSNG2/8-B2] (Eterna round: R96, puzzle: Same State NG 2) | – | – | – | 90.9 | 578 | 1000 |
| UGGCUCAGAGCAGGAUAUAUGUAAUAACAUGAGGAUCACCCAUGUGUCGAGCUUCGGCUCGACACAUAGAAGGGCUCUGAGCCA [SSNG2/2-B2] (Eterna round: R96, puzzle: Same State NG 2) | – | – | – | 13.3 | 29.2 | 40.9 |
| UGGCUGAGUCGAGGAUAUGAUCUUCAUAUAUAUACAUGAGGAUCACCCAUGUAUAAUUACAUGGAUCAGAAGGCGACUCAGCCU [SSNG2/13-A2] (Eterna round: R96, puzzle: Same State NG 2) | – | – | – | – | 23 | – |
| UGGCUGGUGCUAGGAUAUACAUGAGGAAUCCUCGUAGAAGGAGCACGACAUGAGGAUCACCCAUGUAGCCGUCCGUAGACGGCU [salish99_SSNG1_r04_007] (Eterna round: R96, puzzle: Same State NG 1) | – | – | – | 284 | 156 | 112 |
| UGGUACAUGGGAGGAUAUGGAGUGAAGACAUGAGGAUCACCCAUGUUAUAAAAGCCGAGAGGCAACUAGAAGGCCCAUGUACCU [JL SSNG1 3.93] (Eterna round: R96, puzzle: Same State NG 2) | – | – | – | 14.3 | 37 | 55 |
| UGGUACAUGGGAGGAUAUGGAGUGAUGACAUGAGGAUCACCCAUGUUAUAUAUGCCGAGAGGCAACUAGAAGGCCCAUGUACCU [JL SSNG1 3.97] (Eterna round: R96, puzzle: Same State NG 2) | – | – | – | 19.4 | 121 | 137 |
| UGGUACAUGGGAGGAUAUGGAGUGAUGACAUGAGGAUCACCCAUGUUAUUUAUGCCGAGAGGCAACUAGAAGGCCCAUGUACCU [JL SSNG1 3.96] (Eterna round: R96, puzzle: Same State NG 2) | – | – | – | 16.7 | 40.8 | 52 |
| UGGUCUCACUUAGGAUAUUAGCACCGAAAGAGCUAAGAAGGAGGUGAAACUCUCACAUGAGGAUCACCCAUGUACACCCUAGGG [Eternabot solution 3] (Eterna round: R96, puzzle: Same State NG 1) | – | – | – | 162 | 503 | 1080 |
| UGUACCUUCAUAGGAUAUCAUGCGAAAAUUGCGUGAGAAGGGUGAAUACUGUCUUUCUAAGAGUACAUGAGGAUCACCCAUGUA [SameState NG1 #62] (Eterna round: R96, puzzle: Same State NG 1) | – | – | – | 181 | 133 | 152 |
| UGUCCAGCCUGAGCUGGACAAAAGCAUGUACAUGAGGAUCACCCAUGUUCAUGUACAAGCUUUUUGCUCGUCUUAAG [salish99_208a_r3_032] (puzzle: Sensor for hsa-mir-208a) | 13.9 | 547 | 533 | – | – | – |
| UGUCCAGCCUGAGCUGGACAAAAGCAUGUACAUGAGGAUCACCCAUGUUCAUGUACAAGCUUUUUGCUCGUCUUAUC [salish99_208a_r3_057] (puzzle: Sensor for hsa-mir-208a) | 13.2 | 401 | 526 | – | – | – |
| UGUCGUUGCAGAGGAUAUGGGAACUCGAUGCCGUAAGGUAUCAUAACAUGAGGAUCACCCAUGUCCCAGAAGGCUGCAGCAAGC [Leatve Mod] (Eterna round: R96, puzzle: Same State NG 2) | – | – | – | 29.7 | 94 | 235 |
| UGUUAACAUGAGGAUCACCCAUGUCAAAAGAAUCGAGGAUAUGGUAAGUAAUAAGAGAAUCUAGAAGGCGAAGUUG [Altered State 1-24 - Jieux - Same State 1] (puzzle: Same State 1) | 55.9 | 42.7 | 60.9 | – | – | – |
| UGUUAACAUGAGGAUCACCCAUGUCAAAUGAAUCGAGGAUAUGGGAAGUAAUAAGAUAAACUAGAAGGCGAAGUUG [Altered State 1-1 - Jieux - Same State 1] (puzzle: Same State 1) | 106 | 358 | 195 | – | – | – |
| UGUUAACAUGAGGAUCACCCAUGUCAAAUGAAUGAAGGAUAUGGAAAGUAAUAAGAUGAACUAGAAGGUCAAGAUG [Altered State 1-22 - Jieux - Same State 1] (puzzle: Same State 1) | 51.9 | 48.4 | 49.8 | – | – | – |
| UGUUGUAUUACAGGAUAUCUAGUAAUUUUAUUUAGAGAAGGGUAUUCACAUGAGGAUCACCCAUGUAUAUACGAGGAAGUUGUG [JMF's solution 35] (Eterna round: R96, puzzle: Same State NG 1) | – | – | – | – | 27.8 | – |
| UGUUGUAUUACAGGAUAUCUAUGAUUGUUAUUUAGAGAAGGGUAUUCACAUGAGGAUCACCCAUGUAUAUACGAGGAAGUUGUG [JMF's solution 60] (Eterna round: R96, puzzle: Same State NG 1) | – | – | – | 52.3 | 36.7 | 50.6 |
| UGUUGUAUUACAGGAUAUCUAUGAUUUUUAUAUAGAGAAGGGUAUUCACAUGAGGAUCACCCAUGUAUAUACGAGGAAGUUGUG [JMF's solution 68] (Eterna round: R96, puzzle: Same State NG 1) | – | – | – | – | 39.6 | – |
| UGUUGUAUUACAGGAUAUCUAUUGUUUUGAUUUAGAGAAGGGUAUUCACAUGAGGAUCACCCAUGUAUAUACGAGGAAGUUGUG [JMF's solution 77] (Eterna round: R96, puzzle: Same State NG 1) | – | – | – | 64.1 | 40.3 | 50.6 |
| UGUUGUAUUACAGGAUAUCUAUUGUUUUUAAUUAGAGAAGGGUAUUCACAUGAGGAUCACCCAUGUAUAUACGAGGAAGUUGUG [JMF's solution 81] (Eterna round: R96, puzzle: Same State NG 1) | – | – | – | – | 37.6 | – |

Reference: the supplement of paper PMC9170038
